Consider eight sequences from the supplement of paper PMC5998384.

The test system of data set [1] is HeLa Kyoto. Put plainly: solubility in G1/S (NP-40 vs SDS abundance) (log2 ratio); higher = more soluble. As to conditions: cell cycle stage: G1/S.
Data set [2] deals with HeLa Kyoto. Put plainly: solubility change mitosis vs G1/S (difference of NP-40 vs SDS log2 ratios) (log2 ratio difference); higher = more soluble in mitosis.
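Throughout, for solubility change mitosis vs G1/S (difference of NP-40 vs SDS log2 ratios): synchronized HeLa Kyoto cells (double thymidine block for G1/S, nocodazole release for mitosis), protein amounts in NP-40 versus SDS lysates quantified by mass spectrometry, three biological replicates.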
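Throughout, for solubility in G1/S (NP-40 vs SDS abundance): HeLa Kyoto cells arrested at G1/S by double thymidine block, proteins quantified by TMT10plex mass spectrometry in mild NP-40 versus SDS extracts, three biological replicates.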

As to “MRFAWTVLLLGPLQLCALVHCAPPAAGQQQPPREPPAAPGAWRQQIQWENNGQVFSLLSLGSQYQPQRRRDPGAAVPGAANASAQQPRTPILLIRDNRTAAARTRTAGSSGVTAGRPRPTARHWFQAGYSTSRAREAGASRAENQTAPGEVPALSNLRPPSRVDGMVGDDPYNPYKYSDDNPYYNYYDTYERPRPGGRYRPGYGTGYFQYGLPDLVADPYYIQASTYVQKMSMYNLRCAAEENCLASTAYRADVRDYDHRVLLRFPQRVKNQGTSDFLPSRPRYSWEWHSCHQHYHSMDEFSHYDLLDANTQRRVAEGHKASFCLEDTSCDYGYHRRFACTAHTQGLSPGCYDTYGADIDCQWIDITDVKPGNYILKVSVNPSYLVPESDYTNNVVRCDIRYTGHHAYASGCTISPY [LOX]”, in data set [1], the “solubility in G1/S (log2)” value was -0.354. The “solubility change mitosis (log2)” value in data set [2] is 0.257.

Regarding “MRGPSGALWLLLALRTVLGGMEVRWCATSDPEQHKCGNMSEAFREAGIQPSLLCVRGTSADHCVQLIAAQEADAITLDGGAIYEAGKEHGLKPVVGEVYDQEVGTSYYAVAVVRRSSHVTIDTLKGVKSCHTGINRTVGWNVPVGYLVESGRLSVMGCDVLKAVSDYFGGSCVPGAGETSYSESLCRLCRGDSSGEGVCDKSPLERYYDYSGAFRCLAEGAGDVAFVKHSTVLENTDGKTLPSWGQALLSQDFELLCRDGSRADVTEWRQCHLARVPAHAVVVRADTDGGLIFRLLNEGQRLFSHEGSSFQMFSSEAYGQKDLLFKDSTSELVPIATQTYEAWLGHEYLHAMKGLLCDPNRLPPYLRWCVLSTPEIQKCGDMAVAFRRQRLKPEIQCVSAKSPQHCMERIQAEQVDAVTLSGEDIYTAGKTYGLVPAAGEHYAPEDSSNSYYVVAVVRRDSSHAFTLDELRGKRSCHAGFGSPAGWDVPVGALIQRGFIRPKDCDVLTAVSEFFNASCVPVNNPKNYPSSLCALCVGDEQGRNKCVGNSQERYYGYRGAFRCLVENAGDVAFVRHTTVFDNTNGHNSEPWAAELRSEDYELLCPNGARAEVSQFAACNLAQIPPHAVMVRPDTNIFTVYGLLDKAQDLFGDDHNKNGFKMFDSSNYHGQDLLFKDATVRAVPVGEKTTYRGWLGLDYVAALEGMSSQQCSGAAAPAPGAPLLPLLLPALAARLLPPAL [MFI2]”, the “solubility in G1/S (log2)” value in data set [1] was -0.519. Also, the “solubility change mitosis (log2)” value in data set [2] is -0.0542.

As for “MRPKTFPATTYSGNSRQRLQEIREGLKQPSKSSVQGLPAGPNSDTSLDAKVLGSKDATRQQQQMRATPKFGPYQKALREIRYSLLPFANESGTSAAAEVNRQMLQELVNAGCDQEMAGRALKQTGSRSIEAALEYISKMGYLDPRNEQIVRVIKQTSPGKGLMPTPVTRRPSFEGTGDSFASYHQLSGTPYEGPSFGADGPTALEEMPRPYVDYLFPGVGPHGPGHQHQHPPKGYGASVEAAGAHFPLQGAHYGRPHLLVPGEPLGYGVQRSPSFQSKTPPETGGYASLPTKGQGGPPGAGLAFPPPAAGLYVPHPHHKQAGPAAHQLHVLGSRSQVFASDSPPQSLLTPSRNSLNVDLYELGSTSVQQWPAATLARRDSLQKPGLEAPPRAHVAFRPDCPVPSRTNSFNSHQPRPGPPGKAEPSLPAPNTVTAVTAAHILHPVKSVRVLRPEPQTAVGPSHPAWVPAPAPAPAPAPAPAAEGLDAKEEHALALGGAGAFPLDVEYGGPDRRCPPPPYPKHLLLRSKSEQYDLDSLCAGMEQSLRAGPNEPEGGDKSRKSAKGDKGGKDKKQIQTSPVPVRKNSRDEEKRESRIKSYSPYAFKFFMEQHVENVIKTYQQKVNRRLQLEQEMAKAGLCEAEQEQMRKILYQKESNYNRLKRAKMDKSMFVKIKTLGIGAFGEVCLACKVDTHALYAMKTLRKKDVLNRNQVAHVKAERDILAEADNEWVVKLYYSFQDKDSLYFVMDYIPGGDMMSLLIRMEVFPEHLARFYIAELTLAIESVHKMGFIHRDIKPDNILIDLDGHIKLTDFGLCTGFRWTHNSKYYQKGSHVRQDSMEPSDLWDDVSNCRCGDRLKTLEQRARKQHQRCLAHSLVGTPNYIAPEVLLRKGYTQLCDWWSVGVILFEMLVGQPPFLAPTPTETQLKVINWENTLHIPAQVKLSPEARDLITKLCCSADHRLGRNGADDLKAHPFFSAIDFSSDIRKQPAPYVPTISHPMDTSNFDPVDEESPWNDASEGSTKAWDTLTSPNNKHPEHAFYEFTFRRFFDDNGYPFRCPKPSGAEASQAESSDLESSDLVDQTEGCQPVYV [LATS2]”, the “solubility in G1/S (log2)” value in data set [1] stood at 0.178. Also, in data set [2], the “solubility change mitosis (log2)” value is -0.0575.

Take “MRRKGRCHRGSAARHPSSPCSVKHSPTRETLTYAQAQRMVEIEIEGRLHRISIFDPLEIILEDDLTAQEMSECNSNKENSERPPVCLRTKRHKNNRVKKKNEALPSAHGTPASASALPEPKVRIVEYSPPSAPRRPPVYYKFIEKSAEELDNEVEYDMDEEDYAWLEIVNEKRKGDCVPAVSQSMFEFLMDRFEKESHCENQKQGEQQSLIDEDAVCCICMDGECQNSNVILFCDMCNLAVHQECYGVPYIPEGQWLCRHCLQSRARPADCVLCPNKGGAFKKTDDDRWGHVVCALWIPEVGFANTVFIEPIDGVRNIPPARWKLTCYLCKQKGVGACIQCHKANCYTAFHVTCAQKAGLYMKMEPVKELTGGGTTFSVRKTAYCDVHTPPGCTRRPLNIYGDVEMKNGVCRKESSVKTVRSTSKVRKKAKKAKKALAEPCAVLPTVCAPYIPPQRLNRIANQVAIQRKKQFVERAHSYWLLKRLSRNGAPLLRRLQSSLQSQRSSQQRENDEEMKAAKEKLKYWQRLRHDLERARLLIELLRKREKLKREQVKVEQVAMELRLTPLTVLLRSVLDQLQDKDPARIFAQPVSLKEVPDYLDHIKHPMDFATMRKRLEAQGYKNLHEFEEDFDLIIDNCMKYNARDTVFYRAAVRLRDQGGVVLRQARREVDSIGLEEASGMHLPERPAAAPRRPFSWEDVDRLLDPANRAHLGLEEQLRELLDMLDLTCAMKSSGSRSKRAKLLKKEIALLRNKLSQQHSQPLPTGPGLEGFEEDGAALGPEAGEEVLPRLETLLQPRKRSRSTCGDSEVEEESPGKRLDAGLTNGFGGARSEQEPGGGLGRKATPRRRCASESSISSSNSPLCDSSFNAPKCGRGKPALVRRHTLEDRSELISCIENGNYAKAARIAAEVGQSSMWISTDAAASVLEPLKVVWAKCSGYPSYPALIIDPKMPRVPGHHNGVTIPAPPLDVLKIGEHMQTKSDEKLFLVLFFDNKRSWQWLPKSKMVPLGIDETIDKLKMMEGRNSSIRKAVRIAFDRAMNHLSRVHGEPTSDLSDID [BRD1]”: the “solubility in G1/S (log2)” value in data set [1] was -0.879. Besides, the “solubility change mitosis (log2)” value in data set [2] came out at 0.194.

With “MRRSRSSAAAKLRGQKRSGASGASAAPAASAAAALAPSATRTRRSASQAGSKSQAVEKPPSEKPRLRRSSPRAQEEGPGEPPPPELALLPPPPPPPPTPATPTSSASNLDLGEQRERWETFQKRQKLTSEGAAKLLLDTFEYQGLVKHTGGCHCGAVRFEVWASADLHIFDCNCSICKKKQNRHFIVPASRFKLLKGAEHITTYTFNTHKAQHTFCKRCGVQSFYTPRSNPGGFGIAPHCLDEGTVRSMVTEEFNGSDWEKAMKEHKTIKNMSKE [CENPV]”, in data set [1], the “solubility in G1/S (log2)” value is -2.01. For the same sequence, the “solubility change mitosis (log2)” value in data set [2] came to 0.822.

Regarding “MRSLRKKREKPRPEQWKGLPGPPRAPEPEDVAVPGGVDLLTLPQLCFPGGVCVATEPKEDCVHFLVLTDVCGNRTYGVVAQYYRPLHDEYCFYNGKTHRECPGCFVPFAVCVVSRFPYYNSLKDCLSCLLALLKPCKDFEVDSHIKDFAAKLSLIPSPPPGPLHLVFNMKSLQIVLPARADPESPILDLDLHLPLLCFRPEKVLQILTCILTEQRIVFFSSDWALLTLVTECFMAYLYPLQWQHPFVPILSDQMLDFVMAPTSFLMGCHLDHFEEVSKEADGLVLINIDHGSITYSKSTDDNVDIPDVPLLAAQTFIQRVQSLQLHHELHAAHLLSSTDLKEGRAHRRSWQQKLNCQIQQTTLQLLVSIFRDVKNHLNYEHRVFNSEEFLKTRAPGDHQFYKQVLDTYMFHSFLKARLNRRMDAFAQMDLDTQSEEDRINGMLLSPRRPTVEKRASRKSSHLHVTHRRMVVSMPNLQDIAMPELAPRNSSLRLTDTAGCRGSSAVLNVTPKSPYTFKIPEIHFPLESKCVQAYHAHFVSMLSEAMCFLAPDNSLLLARYLYLRGLVYLMQGQLLNALLDFQNLYKTDIRIFPTDLVKRTVESMSAPEWEGAEQAPELMRLISEILDKPHEASKLDDHVKKFKLPKKHMQLGDFMKRVQESGIVKDASIIHRLFEALTVGQEKQIDPETFKDFYNCWKETEAEAQEVSLPWLVMEHLDKNECVCKLSSSVKTNLGVGKIAMTQKRLFLLTEGRPGYLEISTFRNIEEVRRTTTTFLLRRIPTLKIRVASKKEVFEANLKTECDLWHLMVKEMWAGKKLADDHKDPHYVQQALTNVLLMDAVVGTLQSPGAIYAASKLSYFDKMSNEMPMTLPETTLETLKHKINPSAGEAFPQAVDVLLYTPGHLDPAEKVEDAHPKLWCALSEGKVTVFNASSWTIHQHSFKVGTAKVNCMVMADQNQVWVGSEDSVIYIINVHSMSCNKQLTAHCSSVTDLIVQDGQEAPSNVYSCSMDGMVLVWNVSTLQVTSRFQLPRGGLTSIRLHGGRLWCCTGNSIMVMKMNGSLHQELKIEENFKDTSTSFLAFQLLPEEEQLWAACAGRSEVYIWSLKDLAQPPQRVPLEDCSEINCMIRVKKQVWVGSRGLGQGTPKGKIYVIDAERKTVEKELVAHMDTVRTLCSAEDRYVLSGSGREEGKVAIWKGE [DENND3]”, the “solubility in G1/S (log2)” value in data set [1] was -0.339. Further, the “solubility change mitosis (log2)” value in data set [2] is -0.197.

With “MSANNSPPSAQKSVLPTAIPAVLPAASPCSSPKTGLSARLSNGSFSAPSLTNSRGSVHTVSFLLQIGLTRESVTIEAQELSLSAVKDLVCSIVYQKFPECGFFGMYDKILLFRHDMNSENILQLITSADEIHEGDLVEVVLSALATVEDFQIRPHTLYVHSYKAPTFCDYCGEMLWGLVRQGLKCEGCGLNYHKRCAFKIPNNCSGVRKRRLSNVSLPGPGLSVPRPLQPEYVALPSEESHVHQEPSKRIPSWSGRPIWMEKMVMCRVKVPHTFAVHSYTRPTICQYCKRLLKGLFRQGMQCKDCKFNCHKRCASKVPRDCLGEVTFNGEPSSLGTDTDIPMDIDNNDINSDSSRGLDDTEEPSPPEDKMFFLDPSDLDVERDEEAVKTISPSTSNNIPLMRVVQSIKHTKRKSSTMVKEGWMVHYTSRDNLRKRHYWRLDSKCLTLFQNESGSKYYKEIPLSEILRISSPRDFTNISQGSNPHCFEIITDTMVYFVGENNGDSSHNPVLAATGVGLDVAQSWEKAIRQALMPVTPQASVCTSPGQGKDHKDLSTSISVSNCQIQENVDISTVYQIFADEVLGSGQFGIVYGGKHRKTGRDVAIKVIDKMRFPTKQESQLRNEVAILQNLHHPGIVNLECMFETPERVFVVMEKLHGDMLEMILSSEKSRLPERITKFMVTQILVALRNLHFKNIVHCDLKPENVLLASAEPFPQVKLCDFGFARIIGEKSFRRSVVGTPAYLAPEVLRSKGYNRSLDMWSVGVIIYVSLSGTFPFNEDEDINDQIQNAAFMYPPNPWREISGEAIDLINNLLQVKMRKRYSVDKSLSHPWLQDYQTWLDLREFETRIGERYITHESDDARWEIHAYTHNLVYPKHFIMAPNPDDMEEDP [PRKD3]”, the “solubility in G1/S (log2)” value in data set [1] is -0.25. In addition, the “solubility change mitosis (log2)” value in data set [2] is -0.119.

With “MSEIRKDTLKAILLELECHFTWNLLKEDIDLFEVEDTIGQQLEFLTTKSRLALYNLLAYVKHLKGQNKDALECLEQAEEIIQQEHSDKEEVRSLVTWGNYAWVYYHMDQLEEAQKYTGKIGNVCKKLSSPSNYKLECPETDCEKGWALLKFGGKYYQKAKAAFEKALEVEPDNPEFNIGYAITVYRLDDSDREGSVKSFSLGPLRKAVTLNPDNSYIKVFLALKLQDVHAEAEGEKYIEEILDQISSQPYVLRYAAKFYRRKNSWNKALELLKKALEVTPTSSFLHHQMGLCYRAQMIQIKKATHNRPKGKDKLKVDELISSAIFHFKAAMERDSMFAFAYTDLANMYAEGGQYSNAEDIFRKALRLENITDDHKHQIHYHYGRFQEFHRKSENTAIHHYLEALKVKDRSPLRTKLTSALKKLSTKRLCHNALDVQSLSALGFVYKLEGEKRQAAEYYEKAQKIDPENAEFLTALCELRLSI [IFIT5]”, in data set [1], the “solubility in G1/S (log2)” value worked out at 0.129. Also, in data set [2], the “solubility change mitosis (log2)” value was 0.0621.
